From article PMC6601550

Legend:
[1] = target: FcRn (neonatal Fc receptor) immobilised in the FcRn binding affinity measurement (UniProt P55899); experiment: BLI
[2] = target: human neonatal Fc receptor (FcRn heavy chain FCGRT with B2M) on MDCK-hFcRn cells (human) (UniProt P55899); experiment: flow cytometry on cells

Substance	Kd [1]	MFI (binding to MDCK-hFcRn cells) [2]	MFI (cell binding to MDCK-hFcRn cells) [2]
Adalimumab (antibody)	1180 nM	183 MFI	
Basiliximab (antibody)		203 MFI	
Emicizumab (bispecific antibody)	1230 nM		
Infliximab (antibody)		128 MFI	
Ocrelizumab (antibody)		101 MFI	
Rituximab (antibody)	460 nM		
anti-herpes simplex virus glycoprotein D (gD)-YTE antibody			1150 MFI
